Assay results: PMC1931440

target: murine type IV collagen (murine) (UniProt P02463); assay: adherence of recombinant bacteria to collagen-coated wells; intact E. coli EPI300 expressing Hag (~10^7 CFU in PBS with 0.15% gelatin) added to BioCoat murine type IV collagen wells with tissue culture medium; centrifuged 165 x g 5 min; 1 hr at 37°C, 7.5% CO2; washed five times; fixed, crystal violet; bacteria counted per microscopic field, normalized by CFU; negative control E. coli with pCC1.3
Sequence of UniProt P02463 (P02463 173-1669, chain 1 of 2): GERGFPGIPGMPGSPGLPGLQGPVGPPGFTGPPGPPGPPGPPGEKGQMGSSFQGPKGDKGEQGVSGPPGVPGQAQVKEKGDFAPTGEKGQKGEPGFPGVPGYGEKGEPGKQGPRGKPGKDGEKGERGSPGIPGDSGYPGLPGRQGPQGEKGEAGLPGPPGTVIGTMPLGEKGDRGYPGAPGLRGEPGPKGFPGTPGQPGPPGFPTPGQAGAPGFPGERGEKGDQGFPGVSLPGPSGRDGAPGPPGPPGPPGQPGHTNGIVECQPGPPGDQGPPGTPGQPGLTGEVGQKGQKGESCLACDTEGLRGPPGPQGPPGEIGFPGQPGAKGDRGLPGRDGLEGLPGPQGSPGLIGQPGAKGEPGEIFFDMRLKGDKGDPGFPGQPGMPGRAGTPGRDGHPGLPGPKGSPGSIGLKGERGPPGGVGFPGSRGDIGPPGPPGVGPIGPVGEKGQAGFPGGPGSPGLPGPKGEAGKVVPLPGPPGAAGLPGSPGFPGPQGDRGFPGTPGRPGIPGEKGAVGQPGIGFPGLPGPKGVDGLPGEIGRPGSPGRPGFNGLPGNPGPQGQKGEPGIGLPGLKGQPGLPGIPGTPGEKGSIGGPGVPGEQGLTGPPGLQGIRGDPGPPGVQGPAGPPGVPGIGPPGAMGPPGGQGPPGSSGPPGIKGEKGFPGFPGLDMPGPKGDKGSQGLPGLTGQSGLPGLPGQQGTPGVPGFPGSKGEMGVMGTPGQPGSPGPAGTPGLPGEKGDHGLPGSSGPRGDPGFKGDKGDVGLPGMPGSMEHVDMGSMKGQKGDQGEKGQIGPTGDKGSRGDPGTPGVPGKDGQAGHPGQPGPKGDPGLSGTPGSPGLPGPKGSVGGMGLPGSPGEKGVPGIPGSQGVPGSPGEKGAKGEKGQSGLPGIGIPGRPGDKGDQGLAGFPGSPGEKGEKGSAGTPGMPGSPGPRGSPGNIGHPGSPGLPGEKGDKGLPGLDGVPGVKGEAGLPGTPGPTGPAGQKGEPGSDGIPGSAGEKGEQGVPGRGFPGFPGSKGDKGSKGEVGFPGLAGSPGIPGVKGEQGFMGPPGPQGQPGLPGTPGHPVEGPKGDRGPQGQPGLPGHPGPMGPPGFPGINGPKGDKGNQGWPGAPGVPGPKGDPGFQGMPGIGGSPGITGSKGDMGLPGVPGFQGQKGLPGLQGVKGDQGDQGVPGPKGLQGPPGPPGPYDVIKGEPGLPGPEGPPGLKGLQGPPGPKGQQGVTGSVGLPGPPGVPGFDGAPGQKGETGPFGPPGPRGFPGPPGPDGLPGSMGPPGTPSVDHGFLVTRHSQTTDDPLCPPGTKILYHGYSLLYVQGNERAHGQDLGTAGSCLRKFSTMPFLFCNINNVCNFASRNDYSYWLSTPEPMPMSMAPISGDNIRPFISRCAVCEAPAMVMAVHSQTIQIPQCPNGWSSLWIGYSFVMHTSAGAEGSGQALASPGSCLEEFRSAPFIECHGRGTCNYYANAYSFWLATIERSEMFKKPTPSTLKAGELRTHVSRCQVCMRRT
Sequence of UniProt P02463 (P08122 184-1707, chain 2 of 2, further chain): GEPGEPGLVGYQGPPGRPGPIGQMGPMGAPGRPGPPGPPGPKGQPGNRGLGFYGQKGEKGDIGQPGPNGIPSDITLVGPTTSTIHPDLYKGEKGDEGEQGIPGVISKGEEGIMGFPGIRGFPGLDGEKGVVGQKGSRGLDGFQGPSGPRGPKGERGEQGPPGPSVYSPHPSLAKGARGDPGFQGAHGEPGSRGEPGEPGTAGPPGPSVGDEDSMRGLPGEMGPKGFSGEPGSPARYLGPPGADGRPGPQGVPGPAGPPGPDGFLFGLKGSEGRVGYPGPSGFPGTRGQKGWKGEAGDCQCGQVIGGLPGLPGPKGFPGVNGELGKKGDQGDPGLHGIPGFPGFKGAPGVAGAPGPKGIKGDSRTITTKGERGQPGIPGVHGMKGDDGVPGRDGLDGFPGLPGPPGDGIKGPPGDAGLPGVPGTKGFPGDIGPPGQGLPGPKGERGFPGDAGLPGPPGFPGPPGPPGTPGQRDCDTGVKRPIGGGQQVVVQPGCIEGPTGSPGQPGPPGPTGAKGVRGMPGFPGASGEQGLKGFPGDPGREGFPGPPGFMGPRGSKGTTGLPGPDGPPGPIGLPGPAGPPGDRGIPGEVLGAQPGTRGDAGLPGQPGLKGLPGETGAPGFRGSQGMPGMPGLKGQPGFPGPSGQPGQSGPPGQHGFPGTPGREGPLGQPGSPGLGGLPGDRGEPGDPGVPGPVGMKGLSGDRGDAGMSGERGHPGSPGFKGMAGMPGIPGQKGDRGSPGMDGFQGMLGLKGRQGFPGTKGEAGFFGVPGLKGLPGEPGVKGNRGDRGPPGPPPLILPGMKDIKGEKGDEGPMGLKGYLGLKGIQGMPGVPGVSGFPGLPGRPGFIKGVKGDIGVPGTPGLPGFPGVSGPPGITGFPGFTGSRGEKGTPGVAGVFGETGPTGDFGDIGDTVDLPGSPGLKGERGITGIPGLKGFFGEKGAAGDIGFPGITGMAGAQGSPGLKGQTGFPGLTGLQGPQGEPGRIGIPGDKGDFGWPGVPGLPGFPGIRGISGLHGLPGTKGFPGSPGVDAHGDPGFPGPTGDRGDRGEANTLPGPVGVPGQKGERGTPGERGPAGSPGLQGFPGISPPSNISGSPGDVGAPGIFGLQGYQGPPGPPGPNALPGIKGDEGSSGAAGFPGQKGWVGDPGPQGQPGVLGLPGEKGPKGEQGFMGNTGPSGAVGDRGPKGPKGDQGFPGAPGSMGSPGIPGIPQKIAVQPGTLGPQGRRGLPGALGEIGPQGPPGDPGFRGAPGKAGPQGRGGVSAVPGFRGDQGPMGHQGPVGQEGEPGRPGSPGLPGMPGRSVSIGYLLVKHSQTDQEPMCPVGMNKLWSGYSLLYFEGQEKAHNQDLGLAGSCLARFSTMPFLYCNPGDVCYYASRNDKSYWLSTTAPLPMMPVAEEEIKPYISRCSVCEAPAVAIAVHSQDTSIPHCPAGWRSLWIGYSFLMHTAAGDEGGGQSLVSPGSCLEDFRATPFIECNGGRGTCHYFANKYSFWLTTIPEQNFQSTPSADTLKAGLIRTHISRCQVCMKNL

Row | Substance | fold adherence to collagen over the negative control (E. coli with pCC1.3) [fold]
1 | Moraxella catarrhalis strain O12E Hag protein (natural protein) | 35
2 | Moraxella catarrhalis strain O35E Hag protein (wild type) (natural protein) | 80
3 | Moraxella catarrhalis strain V1171 Hag protein (natural protein) | 35
